US20050244864A1, “Development and use of fluorescent probes of unbound analytes” (priority 2004, published 2005)

How the values were obtained:
Type in all cases: binding
[1] = Probe fluorescence ratio response to arachidonate:BSA complex, relative to ADIFAB2 (ΔR/ΔRAD2); settings: fluorescence response (R-Ro) relative to ADIFAB2; arachidonate
Method in brief: (§1)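 Complexes clamp unbound FFA at fixed levels (ΔR ≈0.4 by ADIFAB2, [FFAu] 100–1000 nM). Plate wells: complex or FFA-free BSA at 6 μM BSA in HEPES; probe added after background read. Ex 375/em 550 and 457 nm; ratio R = F550/F457.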

[2] = Probe fluorescence ratio response to linolenate:BSA complex, relative to ADIFAB2 (ΔR/ΔRAD2); settings: fluorescence response (R-Ro) relative to ADIFAB2; linolenate
Method in brief: as §1

[3] = Probe fluorescence ratio response to linoleate:BSA complex, relative to ADIFAB2 (ΔR/ΔRAD2); settings: fluorescence response (R-Ro) relative to ADIFAB2; linoleate
Method in brief: as §1

[4] = Probe fluorescence ratio response to oleate:BSA complex, relative to ADIFAB2 (ΔR/ΔRAD2); settings: fluorescence response (R-Ro) relative to ADIFAB2; oleate
Method in brief: as §1

[5] = Probe fluorescence ratio response to palmitate:BSA complex, relative to ADIFAB2 (ΔR/ΔRAD2); settings: fluorescence response (R-Ro) relative to ADIFAB2; palmitate
Method in brief: as §1

[6] = Probe fluorescence ratio response to palmitoleate:BSA complex, relative to ADIFAB2 (ΔR/ΔRAD2); settings: fluorescence response (R-Ro) relative to ADIFAB2
[7] = Probe fluorescence ratio response to stearate:BSA complex, relative to ADIFAB2 (ΔR/ΔRAD2); settings: fluorescence response (R-Ro) relative to ADIFAB2

Row | Molecule | ΔR/ΔRAD2 AA [1] | ΔR/ΔRAD2 LNA [2] | ΔR/ΔRAD2 LA [3] | ΔR/ΔRAD2 OA [4] | ΔR/ΔRAD2 PA [5] | ΔR/ΔRAD2 POA [6] | ΔR/ΔRAD2 SA [7]
1 | L2P22E6: acrylodan-labeled rI-FABP-L72A mutein: M18 V, G31 A, F55 I, A73 W (protein, UniProt P02693 2-132, looked up, variant M18V G31A F55I L72A A73W, acrylodan label, acrylodan-labeled rI-FABP-L72A mutein: M18 V, G31 A, F55 I, A73 W) Fatty acid-binding protein, …: AFDGTWKVDRNENYEKFVEKMGINVVKRKLAAHDNLKLTITQEGNKFTVKESSNIRNIDVVFELGVDFAYSAWDGTELTGTWTMEGNKLVGKFKRVDNGKELIAVREISGNELIQTYTYEGVEAKRIFKKE | 1.0 | 1.6 | 1.3 | 0.8 | 1.3 | 1.6 | 0.4
2 | L2P18H12: acrylodan-labeled rI-FABP-L72A mutein: M18 I, G31 V, F55 WT, A73 G (protein, UniProt P02693 2-132, looked up, variant M18I G31V L72A A73G, acrylodan label, acrylodan-labeled rI-FABP-L72A mutein: M18 I, G31 V, F55 WT, A73 G) Fatty acid-binding protein, …: AFDGTWKVDRNENYEKFIEKMGINVVKRKLVAHDNLKLTITQEGNKFTVKESSNFRNIDVVFELGVDFAYSAGDGTELTGTWTMEGNKLVGKFKRVDNGKELIAVREISGNELIQTYTYEGVEAKRIFKKE | 1.3 | 1.9 | 1.7 | 1.0 | 1.6 | 2.1 | 0.5
3 | L2P8A5: acrylodan-labeled rI-FABP-L72A mutein: M18 V, G31 A, F55 W, A73 W (protein, UniProt P02693 2-132, looked up, variant M18V G31A F55W L72A A73W, acrylodan label) Fatty acid-binding protein, …: AFDGTWKVDRNENYEKFVEKMGINVVKRKLAAHDNLKLTITQEGNKFTVKESSNWRNIDVVFELGVDFAYSAWDGTELTGTWTMEGNKLVGKFKRVDNGKELIAVREISGNELIQTYTYEGVEAKRIFKKE | 1.1 | 1.9 | 1.6 | 0.9 | 1.5 | 2.0 | 0.4
4 | L2P23A4: acrylodan-labeled rI-FABP-L72A mutein: M18 V, G31 I, F55 L, A73 V (protein, UniProt P02693 2-132, looked up, variant M18V G31I F55L L72A A73V, acrylodan label) Fatty acid-binding protein, …: AFDGTWKVDRNENYEKFVEKMGINVVKRKLIAHDNLKLTITQEGNKFTVKESSNLRNIDVVFELGVDFAYSAVDGTELTGTWTMEGNKLVGKFKRVDNGKELIAVREISGNELIQTYTYEGVEAKRIFKKE | 2.8 | 2.6 | 3.1 | 2.3 | 1.9 | 2.8 | 1.2
5 | L2P12C5: acrylodan-labeled rI-FABP-L72A mutein: M18 I, G31 I, F55 M, A73 I (protein, UniProt P02693 2-132, looked up, variant M18I G31I F55M L72A A73I, acrylodan label) Fatty acid-binding protein, …: AFDGTWKVDRNENYEKFIEKMGINVVKRKLIAHDNLKLTITQEGNKFTVKESSNMRNIDVVFELGVDFAYSAIDGTELTGTWTMEGNKLVGKFKRVDNGKELIAVREISGNELIQTYTYEGVEAKRIFKKE | 1.3 | 1.7 | 1.5 | 0.8 | 1.5 | 1.9 | 0.4
6 | L2P8A6: acrylodan-labeled rI-FABP-L72A mutein: M18 I, G31 V, F55 V, A73 V (protein, UniProt P02693 2-132, looked up, variant M18I G31V F55V L72A A73V, acrylodan label) Fatty acid-binding protein, …: AFDGTWKVDRNENYEKFIEKMGINVVKRKLVAHDNLKLTITQEGNKFTVKESSNVRNIDVVFELGVDFAYSAVDGTELTGTWTMEGNKLVGKFKRVDNGKELIAVREISGNELIQTYTYEGVEAKRIFKKE | 0.6 | 1.2 | 0.8 | 0.4 | 1.0 | 1.3 | 0.2
7 | L2P17H10: acrylodan-labeled rI-FABP-L72A mutein: M18 G, G31 F, F55 WT, A73 L (protein, UniProt P02693 2-132, looked up, variant M18G G31F L72A A73L, acrylodan label, acrylodan-labeled rI-FABP-L72A mutein: M18 G, G31 F, F55 WT, A73 L) Fatty acid-binding protein, …: AFDGTWKVDRNENYEKFGEKMGINVVKRKLFAHDNLKLTITQEGNKFTVKESSNFRNIDVVFELGVDFAYSALDGTELTGTWTMEGNKLVGKFKRVDNGKELIAVREISGNELIQTYTYEGVEAKRIFKKE | 1.8 | 1.2 | 1.5 | 1.4 | 1.0 | 1.2 | 1.7
8 | L2P22G6: acrylodan-labeled rI-FABP-L72A mutein: M18 I, G31 Y, F55 WT, A73 G (protein, UniProt P02693 2-132, looked up, variant M18I G31Y L72A A73G, acrylodan label, acrylodan-labeled rI-FABP-L72A mutein: M18 I, G31 Y, F55 WT, A73 G) Fatty acid-binding protein, …: AFDGTWKVDRNENYEKFIEKMGINVVKRKLYAHDNLKLTITQEGNKFTVKESSNFRNIDVVFELGVDFAYSAGDGTELTGTWTMEGNKLVGKFKRVDNGKELIAVREISGNELIQTYTYEGVEAKRIFKKE | 1.8 | 2.7 | 2.6 | 1.6 | 1.9 | 2.6 | 0.9
9 | L2P11B4: acrylodan-labeled rI-FABP-L72A mutein: M18 V, G31 A, F55 WT, A73 W (protein, UniProt P02693 2-132, looked up, variant M18V G31A L72A A73W, acrylodan label, acrylodan-labeled rI-FABP-L72A mutein: M18 V, G31 A, F55 WT, A73 W) Fatty acid-binding protein, …: AFDGTWKVDRNENYEKFVEKMGINVVKRKLAAHDNLKLTITQEGNKFTVKESSNFRNIDVVFELGVDFAYSAWDGTELTGTWTMEGNKLVGKFKRVDNGKELIAVREISGNELIQTYTYEGVEAKRIFKKE | 1.8 | 2.8 | 2.6 | 1.9 | 2.2 | 3.1 | 0.7
10 | L2P2E11: acrylodan-labeled rI-FABP-L72A mutein: M18 I, G31 F, F55 WT, A73 WT (protein, UniProt P02693 2-132, looked up, variant M18I G31F L72A, acrylodan label) Fatty acid-binding protein, …: AFDGTWKVDRNENYEKFIEKMGINVVKRKLFAHDNLKLTITQEGNKFTVKESSNFRNIDVVFELGVDFAYSAADGTELTGTWTMEGNKLVGKFKRVDNGKELIAVREISGNELIQTYTYEGVEAKRIFKKE | 1.9 | 2.8 | 2.5 | 1.6 | 2.0 | 2.6 | 0.8
11 | L2P4C5: acrylodan-labeled rI-FABP-L72A mutein: M18 I, G31 Y, F55 WT, A73 WT (protein, UniProt P02693 2-132, looked up, variant M18I G31Y L72A, acrylodan label) Fatty acid-binding protein, …: AFDGTWKVDRNENYEKFIEKMGINVVKRKLYAHDNLKLTITQEGNKFTVKESSNFRNIDVVFELGVDFAYSAADGTELTGTWTMEGNKLVGKFKRVDNGKELIAVREISGNELIQTYTYEGVEAKRIFKKE | 2.2 | 2.8 | 2.8 | 2.1 | 1.8 | 2.6 | 1.0
